Experimental data: patent US20180282719A1 (published 2018)

Key:
[1] = target: T1, recombinant soluble human IL-6 receptor (SR344) (human, UniProt P08887 20-344, biotinylated (sites not given) where immobilized via streptavidin or used in phage ELISA); assay: SPR Biacore T100, biotinylated SR344 on streptavidin chip (model of membrane IL-6 receptor), antibody 0.5 ug/mL as analyte, 37 C
T1 construct: also called soluble IL-6 receptor; membrane-type IL-6 receptor (when biotinylated and immobilized on the chip)
T1 sequence (looked up): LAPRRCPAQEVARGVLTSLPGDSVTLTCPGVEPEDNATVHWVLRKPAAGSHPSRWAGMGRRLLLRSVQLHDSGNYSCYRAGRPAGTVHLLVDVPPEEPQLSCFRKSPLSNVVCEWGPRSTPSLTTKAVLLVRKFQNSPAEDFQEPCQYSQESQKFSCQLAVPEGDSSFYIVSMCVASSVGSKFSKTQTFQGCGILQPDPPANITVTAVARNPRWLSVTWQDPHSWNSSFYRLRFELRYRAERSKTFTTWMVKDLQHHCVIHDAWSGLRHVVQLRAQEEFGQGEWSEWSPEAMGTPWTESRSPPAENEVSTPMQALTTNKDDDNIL
Method: (§1) The binding to membrane IL-6 receptor was evaluated by evaluating the binding to the IL-6 receptor immobilized onto a sensor chip. SR344 was biotinylated according to a method known to persons skilled in the art, and the biotinylated SR344 was immobilized on the sensor chip via streptavidin by utilizing the affinity between streptavidin and biotin. All the measurements were carried out at 37° C., and the mobile phase buffer contained 10 mM MES (pH 5.8), 150 mM NaCl and 0.05% TWEEN® 20 (polyoxyethelene sorbitan monolaurate). The pH-dependent binding clones were injected therein under the condition of pH 7.4 and allowed to bind to SR344 (injection sample buffer: 10 mM MES (pH 7.4), 150 mM NaCl, 0.05% TWEEN® 20 (polyoxyethelene sorbitan monolaurate)), and the pH-dependent dissociation of each clone at the mobile phase pH of 5.8 was observed (FIG. 10).
(§2) The dissociation rate […]) at pH 5.8 was calculated using Biacore T100™ Evaluation Software (GE Healthcare) by fitting only the dissociation phase at pH 5.8, where 0.5 μg/mL of the sample was bound in 10 mM MES (pH 7.4), 150 mM NaCl, and 0.05% TWEEN® 20 (polyoxyethelene sorbitan monolaurate), and dissociated in 10 mM MES (pH 5.8), 150 mM NaCl, and 0.05% TWEEN® 20 (polyoxyethelene sorbitan monolaurate). Similarly, the dissociation rate (kd(1/s)) at pH 7.4 was calculated using Biacore T100™ Evaluation Software (GE Healthcare) by fitting only the dissociation phase at pH 7.4, where 0.5 μg/mL of the sample was bound in 10 mM MES (pH 7.4), 150 mM NaCl, and 0.05% TWEEN® 20 (polyoxyethelene sorbitan monolaurate), and dissociated in 10 mM MES (pH 7.4), 150 mM NaCl, and 0.05% TWEEN® 20 (polyoxyethelene sorbitan monolaurate).

[2] = target: T1, recombinant soluble human IL-6 receptor …; assay: SPR Biacore T100, integrated RU of SR344 bound over ten cycles, 37 C
Method: The produced pH-dependent binding clones described above were analyzed using a Biacore T100™ surface plasmon resonance system (GE Healthcare) for their ability to bind to the antigen SR344 multiple times at pH 5.8 and pH 7.4. More specifically, the analysis was carried out as follows. All the measurements were carried out at 37° C. First, the sample antibodies described above were bound onto a recomb-protein A/G (Pierce)-immobilized sensor chip by amine-coupling, where the mobile phase buffer was 10 mM MES (pH 5.8), 150 mM NaCl, and 0.05% TWEEN® 20 (polyoxyethelene sorbitan monolaurate) (step 1). SR344 adjusted to a concentration of about 40 nM was injected as an analyte for 3 minutes at pH 7.4 and allowed to bind (the buffer for injected SR344 was 10 mM MES (pH 7.4), 150 mM NaCl, and 0.05% TWEEN® 20 (polyoxyethelene sorbitan monolaurate)) (step 2). Subsequently, the injection of SR344 was discontinued and a mobile phase of pH 5.8 was allowed to flow for about 70 seconds to expose the antibody/SR344 complex under acidic conditions (step 3). Ten sets of this binding (step 2)/acidity exposure (step 3) process were continuously repeated to observe the sensorgram in real-time, which is shown in FIG. 11. […] In the 10-set repetition of the binding (step 2) and acidic exposure (step 3), almost all H170/L82 and CLH5/L73 antibodies were able to bind to new antigens in each set. […]

[3] = target: T1, recombinant soluble human IL-6 receptor …; assay: SPR Biacore T100, biotinylated SR344 on streptavidin chip (model of membrane IL-6 receptor), antibody 0.5 ug/mL as analyte, bound at pH 7.4, dissociation at pH 7.4, 37 C
Method: as §1, §2

[4] = target: T1, recombinant soluble human IL-6 receptor …; assay: SPR Biacore T100, antibody on protein A/G chip, SR344 analyte, pH 5.8, 37 C
Method: (§3) Kinetic analyses of antigen-antibody reactions at pH 5.8 and pH 7.4 were carried out using a Biacore™ T100 surface plasmon resonance system (GE Healthcare) on the four antibodies: humanized PM1 antibody (WT) and H3pI/L73, CLH5/L73, and H170/L82 produced in Examples 2 and 4 (buffer: 10 mM MES (pH 7.4 or pH 5.8), 150 mM NaCl, and 0.05% TWEEN® 20 (polyoxyethelene sorbitan monolaurate)). Various antibodies were bound onto a sensor chip immobilized with recomb-protein A/G (Pierce) by amine coupling. SR344 adjusted to concentrations of 9.8 to 400 nM was injected to the chip as an analyte. […] All the measurements were carried out at 37° C. Association rate constants kₐ (1/Ms) and dissociation rate constants kd (1/s) were calculated using Biacore T100™ Evaluation Software (GE Healthcare), and dissociation constants KD (M) were calculated on the basis of those values (Table 5). Moreover, the ratio of the affinities at pH 5.8 and pH 7.4 were calculated for each clone to evaluate pH-dependent binding. All the measurements were carried out at 37° C.

[5] = target: T1, recombinant soluble human IL-6 receptor …; assay: SPR Biacore T100, antibody on protein A/G chip, SR344 analyte, 37 C
Method: as §3

[6] = target: T1, recombinant soluble human IL-6 receptor …; assay: SPR Biacore T100, antibody on protein A/G chip, SR344 analyte, 37 C, ratio of pH 5.8 to pH 7.4
Method: as §3

[7] = target: T1, recombinant soluble human IL-6 receptor …; assay: SPR Biacore T100, biotinylated SR344 on streptavidin chip (model of membrane IL-6 receptor), antibody 0.5 ug/mL as analyte, bound at pH 7.4, dissociation at pH 5.8, 37 C
Method: as §1, §2

[8] = target: T1, recombinant soluble human IL-6 receptor …; assay: SPR Biacore T100, antibody on protein A/G chip, SR344 analyte, pH 7.4, 37 C
Method: as §3

[9] = target: T2, soluble mouse IL-31 receptor (mouse, UniProt Q8K5B1 19-499); assay: SPR Biacore T100, antibody on protein A/G chip, soluble mouse IL-31 receptor analyte, pH 5.5, 25 C
T2 sequence (looked up): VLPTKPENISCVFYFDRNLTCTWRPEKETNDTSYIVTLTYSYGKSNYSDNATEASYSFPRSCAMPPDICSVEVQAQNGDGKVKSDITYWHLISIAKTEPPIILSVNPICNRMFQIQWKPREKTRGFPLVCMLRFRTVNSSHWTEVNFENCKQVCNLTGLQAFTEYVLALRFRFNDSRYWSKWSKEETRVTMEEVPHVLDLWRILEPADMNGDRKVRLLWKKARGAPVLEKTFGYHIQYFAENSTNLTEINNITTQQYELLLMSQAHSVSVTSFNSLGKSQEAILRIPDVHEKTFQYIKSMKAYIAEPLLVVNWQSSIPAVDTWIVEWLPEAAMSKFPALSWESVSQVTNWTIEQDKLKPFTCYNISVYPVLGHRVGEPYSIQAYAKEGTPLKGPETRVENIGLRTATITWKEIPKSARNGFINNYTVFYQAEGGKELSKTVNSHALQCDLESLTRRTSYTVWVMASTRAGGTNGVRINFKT
Method: (§4) Kinetic analysis of antigen-antibody reactions at pH 5.5 and pH 7.4 was carried out using a Biacore T100™ surface plasmon resonance system (GE Healthcare) for the two types of antibodies prepared as mentioned above: Anti-IL31R wild type and Anti-IL31R clone 1 (buffer: DPBS(−) (pH 7.4 or pH 5.5), 150 mM NaCl, 0.01% TWEEN® 20 (polyoxyethelene sorbitan monolaurate), 0.02% NaN₃). The antibodies were bound to a sensor chip on which recomb-protein A/G (Pierce) was immobilized by amine coupling, and then the soluble mouse IL-31 receptor (prepared according to the method described in WO 2007/142325) adjusted to an appropriate concentration was injected therein as an analyte. All the measurements were carried out at 25° C. Association rate constants kₐ (1/Ms) and dissociation rate constants kd (1/s) were calculated using Biacore T100™ Evaluation Software (GE Healthcare), and dissociation constants KD (M) were calculated based on those values (Table 16). Furthermore, the ratio of affinity at pH 5.5 and pH 7.4 was calculated for each clone to evaluate the pH-dependent binding.

[10] = target: T2, soluble mouse IL-31 receptor; assay: SPR Biacore T100, antibody on protein A/G chip, soluble mouse IL-31 receptor analyte, 25 C, ratio of pH 5.5 to pH 7.4
Method: as §4

[11] = target: T2, soluble mouse IL-31 receptor; assay: SPR Biacore T100, antibody on protein A/G chip, soluble mouse IL-31 receptor analyte, 25 C
Method: as §4

[12] = target: T2, soluble mouse IL-31 receptor; assay: SPR Biacore T100, antibody on protein A/G chip, soluble mouse IL-31 receptor analyte, pH 7.4, 25 C
Method: as §4

B1: CLH5/L73 (antibody, IgG1, V domains shown)
VH: QVQLQESGPGLVKPSETLSLTCAVSGYSISHDHAWSWVRQPPGEGLEWIGHISYSGITNYNPHLKGRVTISRDTSKNQFSLKLSSVTAADTAAYYCARFLARITAHDHWGEGTLVTVSS
VL: DIQMTQSPSSLSASVGDSVTITCQASQHISSHLNWYQQKPGKAPELLIYYGSHLHSGVPSRFSGSGSGTDFTFTISSLEAEDAATYYCGQGNRLPYTFGQGTKVEIE
notes: expressed and purified as IgG
In the case of B1, the “kd ratio pH 5.8/pH 7.4” value [1] is reported as 5.5, the “total amount of antigen bound over ten cycles relative to WT” value [2] is reported as ~4 fold and the koff [3] is reported as 0.00104 s⁻¹. The Kd [4] was 74 nM, the koff [4] was 0.028 s⁻¹ and the kon [4] was 380000 M⁻¹ s⁻¹. The “pH-dependent binding (affinity ratio) relative to WT” value [5] was > 15 fold, the “KD (pH 5.8)/KD (pH 7.4)” value [6] was 66.1 and the koff [7] was 0.00567 s⁻¹. The Kd [8] was 1.1 nM, the koff [8] was 0.00079 s⁻¹ and the kon [8] was 710000 M⁻¹ s⁻¹.

B2: Anti-IL31R clone 1 (antibody, human IgG1, lambda, V domains shown)
VH: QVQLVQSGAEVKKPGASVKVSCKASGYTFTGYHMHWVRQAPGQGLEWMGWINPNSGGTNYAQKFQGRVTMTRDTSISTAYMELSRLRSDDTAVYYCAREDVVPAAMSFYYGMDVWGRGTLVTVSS
VL: LPVLTQPPSVSVAPGQTARITCGGNNIGSKTVYWYQQEPGQAPVLVVYDDTDRPAGIPERFSGANSGNTATLTISRVEAGDEADYYCQVWDSSTDHGVFGGGTKLTVLG
notes: H chain (c1) / L chain (WT)
A Kd [9] of 22000 nM, a koff [9] of 0.024 s⁻¹ and a kon [9] of 1100 M⁻¹ s⁻¹ were found for B2 in this work. The “KD (pH 5.5)/KD (pH 7.4)” value [10] was 1000, the “pH-dependent binding ability relative to WT” value [11] was ~300 fold and the Kd [12] was 22 nM. For the same binder, the koff [12] was 0.0033 s⁻¹ and the kon [12] was 170000 M⁻¹ s⁻¹.
